Reference: IntAct's records for PubMed 22807449

B1: Natural cytotoxicity triggering receptor 3 (Homo sapiens), O14931 (parent)
chain: MAWMLLLILIMVHPGSCALWVSQPPEIRTLEGSSAFLPCSFNASQGRLAIGSVTWFRDEVVPGKEVRNGTPEFRGRLAPLASSRFLHDHQAELHIRDVRGHDASIYVCRVEVLGLGVGTGNGTRLVVEKEHPQLGAGTVLLLRAGFYAVSFLSVAVGSTVYYQGKCLTWKGPRRQLPAVVPAPLPPPCGSSAHLLPPVPGG
partner: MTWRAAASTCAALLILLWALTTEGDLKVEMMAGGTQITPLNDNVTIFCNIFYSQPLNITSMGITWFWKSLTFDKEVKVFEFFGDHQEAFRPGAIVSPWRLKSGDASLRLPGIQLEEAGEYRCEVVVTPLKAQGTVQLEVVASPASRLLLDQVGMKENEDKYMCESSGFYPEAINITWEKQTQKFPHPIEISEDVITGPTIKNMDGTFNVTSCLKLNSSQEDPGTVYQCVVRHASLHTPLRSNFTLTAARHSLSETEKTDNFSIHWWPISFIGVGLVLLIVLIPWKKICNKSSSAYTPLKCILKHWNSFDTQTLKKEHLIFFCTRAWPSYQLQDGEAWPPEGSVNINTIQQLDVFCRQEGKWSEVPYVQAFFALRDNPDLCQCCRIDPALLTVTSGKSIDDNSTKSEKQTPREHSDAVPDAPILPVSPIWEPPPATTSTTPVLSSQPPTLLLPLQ
B2: Natural cytotoxicity triggering receptor 3 (Homo sapiens), O14931 (parent)
chain: B1 chain

Variants of: B1
Conditions: with nr3l1_human NCR3LG1, Q68D85

Variant | effect of a mutation on the interaction
MAWMLLLILIMVHPGSCALWVSQPPEIRTLEGSSAFLPCSFQASQGRLAIGSVTWFRDEVVPGKEVRQGTPEFRGRLAPLASSRFLHDHQAELHIRDVRGHDASIYVCRVEVLGLGVGTGQGTRLVVEKEHPQLGAGTVLLLRAGFYAVSFLSVAVGSTVYYQGKCLTWKGPRRQLPAVVPAPLPPPCGSSAHLLPPVPGG [N42Q;N68Q;N121Q] | disrupting interaction strength
MAWMLLLILIMVHPGSCALWVSQPPEIRTLEGSSAFLPCSFQASQGRLAIGSVTWFRDEVVPGKEVRQGTPEFRGRLAPLASSRFLHDHQAELHIRDVRGHDASIYVCRVEVLGLGVGTGNGTRLVVEKEHPQLGAGTVLLLRAGFYAVSFLSVAVGSTVYYQGKCLTWKGPRRQLPAVVPAPLPPPCGSSAHLLPPVPGG [N42Q;N68Q] | disrupting interaction strength
MAWMLLLILIMVHPGSCALWVSQPPEIRTLEGSSAFLPCSFNASQGRLAIGSVTWFRDEVVPGKEVRQGTPEFRGRLAPLASSRFLHDHQAELHIRDVRGHDASIYVCRVEVLGLGVGTGQGTRLVVEKEHPQLGAGTVLLLRAGFYAVSFLSVAVGSTVYYQGKCLTWKGPRRQLPAVVPAPLPPPCGSSAHLLPPVPGG [N68Q;N121Q] | decreasing interaction strength
MAWMLLLILIMVHPGSCALWVSQPPEIRTLEGSSAFLPCSFNASQGRLAIGSVTWFRDEVVPGKEVRQGTPEFRGRLAPLASSRFLHDHQAELHIRDVRGHDASIYVCRVEVLGLGVGTGNGTRLVVEKEHPQLGAGTVLLLRAGFYAVSFLSVAVGSTVYYQGKCLTWKGPRRQLPAVVPAPLPPPCGSSAHLLPPVPGG [N68Q] | decreasing interaction strength
MAWMLLLILIMVHPGSCALWVSQPPEIRTLEGSSAFLPCSFQASQGRLAIGSVTWFRDEVVPGKEVRNGTPEFRGRLAPLASSRFLHDHQAELHIRDVRGHDASIYVCRVEVLGLGVGTGQGTRLVVEKEHPQLGAGTVLLLRAGFYAVSFLSVAVGSTVYYQGKCLTWKGPRRQLPAVVPAPLPPPCGSSAHLLPPVPGG [N42Q;N121Q] | disrupting interaction strength
MAWMLLLILIMVHPGSCALWVSQPPEIRTLEGSSAFLPCSFNASQGRLAIGSVTWFRDEVVPGKEVRNGTPEFRGRLAPLASSRFLHDHQAELHIRDVRGHDASIYVCRVEVLGLGVGTGQGTRLVVEKEHPQLGAGTVLLLRAGFYAVSFLSVAVGSTVYYQGKCLTWKGPRRQLPAVVPAPLPPPCGSSAHLLPPVPGG [N121Q] | with no effect
MAWMLLLILIMVHPGSCALWVSQPPEIRTLEGSSAFLPCSFQASQGRLAIGSVTWFRDEVVPGKEVRNGTPEFRGRLAPLASSRFLHDHQAELHIRDVRGHDASIYVCRVEVLGLGVGTGNGTRLVVEKEHPQLGAGTVLLLRAGFYAVSFLSVAVGSTVYYQGKCLTWKGPRRQLPAVVPAPLPPPCGSSAHLLPPVPGG [N42Q] | disrupting interaction strength

Variants of: B2
Conditions: with bag6_human BAG6, P46379
Chain of bag6_human BAG6, P46379 (P46379 whole entry): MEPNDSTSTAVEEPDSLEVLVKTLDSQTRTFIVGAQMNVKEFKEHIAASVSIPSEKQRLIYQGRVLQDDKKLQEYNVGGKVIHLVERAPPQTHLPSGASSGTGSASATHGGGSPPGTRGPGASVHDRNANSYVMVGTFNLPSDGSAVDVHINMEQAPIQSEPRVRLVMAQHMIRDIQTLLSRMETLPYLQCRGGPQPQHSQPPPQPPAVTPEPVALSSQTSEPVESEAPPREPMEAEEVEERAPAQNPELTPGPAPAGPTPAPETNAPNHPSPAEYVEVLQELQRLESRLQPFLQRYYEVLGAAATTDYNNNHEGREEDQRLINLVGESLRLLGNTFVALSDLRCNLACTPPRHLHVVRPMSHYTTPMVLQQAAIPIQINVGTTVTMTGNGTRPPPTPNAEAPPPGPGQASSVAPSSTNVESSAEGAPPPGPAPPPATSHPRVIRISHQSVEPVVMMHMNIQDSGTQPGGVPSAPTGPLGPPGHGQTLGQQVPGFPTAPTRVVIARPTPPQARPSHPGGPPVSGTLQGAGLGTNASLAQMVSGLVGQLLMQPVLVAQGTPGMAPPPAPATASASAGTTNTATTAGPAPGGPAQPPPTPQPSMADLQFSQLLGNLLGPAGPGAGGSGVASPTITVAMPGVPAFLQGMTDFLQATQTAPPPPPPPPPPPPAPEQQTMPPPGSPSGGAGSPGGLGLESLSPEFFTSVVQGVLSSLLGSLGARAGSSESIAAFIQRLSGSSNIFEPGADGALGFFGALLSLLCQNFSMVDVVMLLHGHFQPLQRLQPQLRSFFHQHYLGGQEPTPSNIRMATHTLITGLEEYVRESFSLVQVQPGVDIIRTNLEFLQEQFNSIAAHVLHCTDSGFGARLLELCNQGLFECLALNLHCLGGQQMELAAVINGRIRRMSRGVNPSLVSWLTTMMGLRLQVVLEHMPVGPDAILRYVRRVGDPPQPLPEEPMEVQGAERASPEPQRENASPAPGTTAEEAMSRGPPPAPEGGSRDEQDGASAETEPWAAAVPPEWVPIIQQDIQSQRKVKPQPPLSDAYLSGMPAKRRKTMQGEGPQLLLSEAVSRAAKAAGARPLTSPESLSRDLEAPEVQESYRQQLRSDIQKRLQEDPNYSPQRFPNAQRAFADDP

Variant | effect of a mutation on the interaction
MAWMLLLILIMVHPGSCALWVSQPPEIRTLEGSSAFLPCSFNASQGRLAIGSVTWFRDEVVPGKEVRQGTPEFRGRLAPLASSRFLHDHQAELHIRDVRGHDASIYVCRVEVLGLGVGTGQGTRLVVEKEHPQLGAGTVLLLRAGFYAVSFLSVAVGSTVYYQGKCLTWKGPRRQLPAVVPAPLPPPCGSSAHLLPPVPGG [N68Q;N121Q] | with no effect
MAWMLLLILIMVHPGSCALWVSQPPEIRTLEGSSAFLPCSFQASQGRLAIGSVTWFRDEVVPGKEVRQGTPEFRGRLAPLASSRFLHDHQAELHIRDVRGHDASIYVCRVEVLGLGVGTGQGTRLVVEKEHPQLGAGTVLLLRAGFYAVSFLSVAVGSTVYYQGKCLTWKGPRRQLPAVVPAPLPPPCGSSAHLLPPVPGG [N42Q;N68Q;N121Q] | with no effect
MAWMLLLILIMVHPGSCALWVSQPPEIRTLEGSSAFLPCSFQASQGRLAIGSVTWFRDEVVPGKEVRNGTPEFRGRLAPLASSRFLHDHQAELHIRDVRGHDASIYVCRVEVLGLGVGTGQGTRLVVEKEHPQLGAGTVLLLRAGFYAVSFLSVAVGSTVYYQGKCLTWKGPRRQLPAVVPAPLPPPCGSSAHLLPPVPGG [N42Q;N121Q] | with no effect
MAWMLLLILIMVHPGSCALWVSQPPEIRTLEGSSAFLPCSFNASQGRLAIGSVTWFRDEVVPGKEVRNGTPEFRGRLAPLASSRFLHDHQAELHIRDVRGHDASIYVCRVEVLGLGVGTGQGTRLVVEKEHPQLGAGTVLLLRAGFYAVSFLSVAVGSTVYYQGKCLTWKGPRRQLPAVVPAPLPPPCGSSAHLLPPVPGG [N121Q] | with no effect
MAWMLLLILIMVHPGSCALWVSQPPEIRTLEGSSAFLPCSFQASQGRLAIGSVTWFRDEVVPGKEVRNGTPEFRGRLAPLASSRFLHDHQAELHIRDVRGHDASIYVCRVEVLGLGVGTGNGTRLVVEKEHPQLGAGTVLLLRAGFYAVSFLSVAVGSTVYYQGKCLTWKGPRRQLPAVVPAPLPPPCGSSAHLLPPVPGG [N42Q] | with no effect
MAWMLLLILIMVHPGSCALWVSQPPEIRTLEGSSAFLPCSFNASQGRLAIGSVTWFRDEVVPGKEVRQGTPEFRGRLAPLASSRFLHDHQAELHIRDVRGHDASIYVCRVEVLGLGVGTGNGTRLVVEKEHPQLGAGTVLLLRAGFYAVSFLSVAVGSTVYYQGKCLTWKGPRRQLPAVVPAPLPPPCGSSAHLLPPVPGG [N68Q] | with no effect
MAWMLLLILIMVHPGSCALWVSQPPEIRTLEGSSAFLPCSFQASQGRLAIGSVTWFRDEVVPGKEVRQGTPEFRGRLAPLASSRFLHDHQAELHIRDVRGHDASIYVCRVEVLGLGVGTGNGTRLVVEKEHPQLGAGTVLLLRAGFYAVSFLSVAVGSTVYYQGKCLTWKGPRRQLPAVVPAPLPPPCGSSAHLLPPVPGG [N42Q;N68Q] | with no effect
